The text below walks through data of patent publication US20220220215A1 (CRESCENDO BIOLOGICS, published 2022).

In test [1] the target is T1, human CD137 expressed on cells (Jurkat human CD137 NF-kB luciferase reporter cells; human CD8+ T cells) (human, UniProt Q07011 24-255). The experiment in a line: cell-based or functional assay.
Test [2] has as its target T2, recombinant Fc-tagged ectodomain of cynomolgus PD1 (Acro Biosystems PD1-C5254) (cynomolgus macaque, UniProt B0LAJ3 25-170).
T2 construct: Bought protein; also called Cyno PD1; cynomolgus macaque PD1; not shown: Fc tag and any linker to it
Nature of the test: SPR, Biacore 8K, single-cycle kinetics; Fc-tagged ectodomain captured on Protein G chip; 1:1 model. In a few lines: (§1)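 Single-cycle kinetics: Humabody VH constructs injected 90 s at low to high nanomolar concentrations over captured Fc-tagged ectodomains. Surface regenerated with 10 mM glycine pH 1.5. Kinetics fitted to a 1:1 binding model, including two-PD-1-arm constructs.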

The target in test [3] is T3, recombinant Fc-tagged ectodomain of human PD1 (Acro Biosystems PD1-H5257) (human, UniProt Q15116 25-170).
T3 construct: Bought protein; not shown: Fc tag
Described as above. The essentials:
as §1

For test [4], the target named is T4, recombinant Fc-tagged ectodomain of human CD137 (Acro Biosystems 41B-H5258) (human, UniProt Q07011 24-186).
T4 construct: Bought protein; not shown: Fc tag
Described as above. In a few lines: as §1

Test [5] has as its target T5, recombinant Fc-tagged ectodomain of cynomolgus CD137 (R&D S9324-4b) (cynomolgus macaque, UniProt A9YYE7 24-186).
T5 construct: Bought protein; also called Cyno CD137; cynomolgus macaque CD137; not shown: Fc tag and any linker to it
The test is described as above. The essentials: as §1

Test [6] addresses T1, human CD137 expressed on cells (Jurkat …). The experiment in a line: cell-based or functional assay. This is another data set of the same source.
Test [7] has the same target. The experiment in a line: cell-based or functional assay. This is another data set of the same source.

Numbering of substitutions follows the chain as printed. Names may count otherwise.

B1: TPP-1246 CD137A-6GS-HSA2-6GS-PD138G7(G109D) (bispecific antibody)
chain: EVQLVESGGGLVQPGGSLRLSCAASGFTLSNYWMNWVRQAPGKGLEWVANINQDGSERYYVDSVKGRFTISRDNAKNSLYLQMNSLRAEDTAVYYCARGGEGYGVDHYGLDVSGQGTTVTVSSGGGGSGGGGSGGGGSGGGGSGGGGSGGGGSEVQLVESGGGLVKPGGSLRLSCAASGFTFSNYNMNWVRQAPGKGLEWVSSISSAGTHIYYADSVKGRFTISRDNAKNSLYLQMNSLRAEDTAVYYCARDPHSTGWYKDFDYWGQGTLVTVSSGGGGSGGGGSGGGGSGGGGSGGGGSGGGGSEVQLVESGGGVVRPGGSLRLSCAASGFTFDDYAMSWVRQAPGKGLEWVSGITWNGGSTGYADSVKDRFTISRDNAKNSLYLQMNSLRAEDTALYYCVRDKYSYAWSYDDFDIWGQGTMVTVSS
As for B1, in test [1], the “CD8+ T-cell activation assay - IL-2 release, EC50” value was 176 pM. Moreover, the equilibrium dissociation constant (Kd) (as a rule, the constant that tells how readily two partners part at equilibrium) was found to be 20500 pM in test [2], 8380 pM in test [3], 541 pM in test [4] and 842 pM in test [5]. In addition, the koff (as a rule, the rate constant with which the complex falls apart) in test [2] is 0.00464 s⁻¹; in test [3], 0.00202 s⁻¹; in test [4], 0.000187 s⁻¹; in test [5], 0.000267 s⁻¹. Further, the on-rate constant (kon) (commonly the rate constant with which the complex forms) in test [2] is 227000 M⁻¹ s⁻¹; in test [3], 241000 M⁻¹ s⁻¹; in test [4] it was 345000 M⁻¹ s⁻¹; in test [5] it was 317000 M⁻¹ s⁻¹. The “Jurkat-CD137/CHO-PD-1 Reporter Assay EC50” value in test [6] turned out to be 72.9 pM.

B2: TPP-1290 PD138G7(G109D)-6GS-CD137A-6GS-HSA2 (bispecific antibody)
chain: EVQLVESGGGVVRPGGSLRLSCAASGFTFDDYAMSWVRQAPGKGLEWVSGITWNGGSTGYADSVKDRFTISRDNAKNSLYLQMNSLRAEDTALYYCVRDKYSYAWSYDDFDIWGQGTMVTVSSGGGGSGGGGSGGGGSGGGGSGGGGSGGGGSEVQLVESGGGLVQPGGSLRLSCAASGFTLSNYWMNWVRQAPGKGLEWVANINQDGSERYYVDSVKGRFTISRDNAKNSLYLQMNSLRAEDTAVYYCARGGEGYGVDHYGLDVSGQGTTVTVSSGGGGSGGGGSGGGGSGGGGSGGGGSGGGGSEVQLVESGGGLVKPGGSLRLSCAASGFTFSNYNMNWVRQAPGKGLEWVSSISSAGTHIYYADSVKGRFTISRDNAKNSLYLQMNSLRAEDTAVYYCARDPHSTGWYKDFDYWGQGTLVTVSS
With B2, the “CD8+ T-cell activation assay - IL-2 release, EC50” value in test [1] stood at 199 pM. The dissociation constant Kd in test [2] is 17400 pM; in test [3], 7070 pM; in test [4], 652 pM; in test [5], 1030 pM. Further, the koff in test [2] is 0.00539 s⁻¹; in test [3] it was 0.00244 s⁻¹; in test [4], 0.000185 s⁻¹; in test [5], 0.000255 s⁻¹. Further, the kon in test [2] stood at 310000 M⁻¹ s⁻¹; in test [3], 345000 M⁻¹ s⁻¹; in test [4] it was 283000 M⁻¹ s⁻¹; in test [5], 247000 M⁻¹ s⁻¹. Further, in test [6], the “Jurkat-CD137/CHO-PD-1 Reporter Assay EC50” value is 20 pM.

B3: TPP-805 PSMA-6GS-CD137-6-6GS-HSA (bispecific antibody)
chain: EVQLVESGGGVVQPGRSLRLSCAASGFSFSGYGMHWVRQAPGKGLEWVAYISYDGSNKYYADSVKGRFTISRDNSKNTLYLQMNSLRAEDTAVYYCAKDPAWGLRLGESSSYDFDIWGQGTMVTVSSGGGGSGGGGSGGGGSGGGGSGGGGSGGGGSEVQLVESGGGLVQPGGSLRLSCAASGFTFSNYGMHWVRQAPGKGLEWVAVISNDGNTKTYADSVKGRFTISRDNSKNMLYLQMNSLRTEDTAVYYCAQDETTTVTASYYFDYWGQGTLVTVSSGGGGSGGGGSGGGGSGGGGSGGGGSGGGGSEVQLVESGGGLVQPGRSLRLSCAASGFTFHHYAMHWVRQAPGKGLEWVSGISWNGNKITYADSVKGRFTISRDNAKNSLYLQMNSLRAEDTALYYCVRDSSLFIVGAPTFEHWGRGTLVTVSS
Consider B3, for which, in test [7], the “Jurkat-CD137/CHO-PSMA Reporter Assay EC50” value turned out to be 16000 pM.

B4: TPP-806 PSMA-6GS-CD137-6GS-HSA (bispecific antibody)
chain: B3 chain with M235T
Turning to B4, the “Jurkat-CD137/CHO-PSMA Reporter Assay EC50” value in test [7] is 9300 pM.
